This experiment has as its target rat cardiac ryanodine receptor (RyR2) (rat (endogenous in rat ventricular myocytes)) (UniProt B0LPN4).
Sequence of UniProt B0LPN4 (B0LPN4 whole entry): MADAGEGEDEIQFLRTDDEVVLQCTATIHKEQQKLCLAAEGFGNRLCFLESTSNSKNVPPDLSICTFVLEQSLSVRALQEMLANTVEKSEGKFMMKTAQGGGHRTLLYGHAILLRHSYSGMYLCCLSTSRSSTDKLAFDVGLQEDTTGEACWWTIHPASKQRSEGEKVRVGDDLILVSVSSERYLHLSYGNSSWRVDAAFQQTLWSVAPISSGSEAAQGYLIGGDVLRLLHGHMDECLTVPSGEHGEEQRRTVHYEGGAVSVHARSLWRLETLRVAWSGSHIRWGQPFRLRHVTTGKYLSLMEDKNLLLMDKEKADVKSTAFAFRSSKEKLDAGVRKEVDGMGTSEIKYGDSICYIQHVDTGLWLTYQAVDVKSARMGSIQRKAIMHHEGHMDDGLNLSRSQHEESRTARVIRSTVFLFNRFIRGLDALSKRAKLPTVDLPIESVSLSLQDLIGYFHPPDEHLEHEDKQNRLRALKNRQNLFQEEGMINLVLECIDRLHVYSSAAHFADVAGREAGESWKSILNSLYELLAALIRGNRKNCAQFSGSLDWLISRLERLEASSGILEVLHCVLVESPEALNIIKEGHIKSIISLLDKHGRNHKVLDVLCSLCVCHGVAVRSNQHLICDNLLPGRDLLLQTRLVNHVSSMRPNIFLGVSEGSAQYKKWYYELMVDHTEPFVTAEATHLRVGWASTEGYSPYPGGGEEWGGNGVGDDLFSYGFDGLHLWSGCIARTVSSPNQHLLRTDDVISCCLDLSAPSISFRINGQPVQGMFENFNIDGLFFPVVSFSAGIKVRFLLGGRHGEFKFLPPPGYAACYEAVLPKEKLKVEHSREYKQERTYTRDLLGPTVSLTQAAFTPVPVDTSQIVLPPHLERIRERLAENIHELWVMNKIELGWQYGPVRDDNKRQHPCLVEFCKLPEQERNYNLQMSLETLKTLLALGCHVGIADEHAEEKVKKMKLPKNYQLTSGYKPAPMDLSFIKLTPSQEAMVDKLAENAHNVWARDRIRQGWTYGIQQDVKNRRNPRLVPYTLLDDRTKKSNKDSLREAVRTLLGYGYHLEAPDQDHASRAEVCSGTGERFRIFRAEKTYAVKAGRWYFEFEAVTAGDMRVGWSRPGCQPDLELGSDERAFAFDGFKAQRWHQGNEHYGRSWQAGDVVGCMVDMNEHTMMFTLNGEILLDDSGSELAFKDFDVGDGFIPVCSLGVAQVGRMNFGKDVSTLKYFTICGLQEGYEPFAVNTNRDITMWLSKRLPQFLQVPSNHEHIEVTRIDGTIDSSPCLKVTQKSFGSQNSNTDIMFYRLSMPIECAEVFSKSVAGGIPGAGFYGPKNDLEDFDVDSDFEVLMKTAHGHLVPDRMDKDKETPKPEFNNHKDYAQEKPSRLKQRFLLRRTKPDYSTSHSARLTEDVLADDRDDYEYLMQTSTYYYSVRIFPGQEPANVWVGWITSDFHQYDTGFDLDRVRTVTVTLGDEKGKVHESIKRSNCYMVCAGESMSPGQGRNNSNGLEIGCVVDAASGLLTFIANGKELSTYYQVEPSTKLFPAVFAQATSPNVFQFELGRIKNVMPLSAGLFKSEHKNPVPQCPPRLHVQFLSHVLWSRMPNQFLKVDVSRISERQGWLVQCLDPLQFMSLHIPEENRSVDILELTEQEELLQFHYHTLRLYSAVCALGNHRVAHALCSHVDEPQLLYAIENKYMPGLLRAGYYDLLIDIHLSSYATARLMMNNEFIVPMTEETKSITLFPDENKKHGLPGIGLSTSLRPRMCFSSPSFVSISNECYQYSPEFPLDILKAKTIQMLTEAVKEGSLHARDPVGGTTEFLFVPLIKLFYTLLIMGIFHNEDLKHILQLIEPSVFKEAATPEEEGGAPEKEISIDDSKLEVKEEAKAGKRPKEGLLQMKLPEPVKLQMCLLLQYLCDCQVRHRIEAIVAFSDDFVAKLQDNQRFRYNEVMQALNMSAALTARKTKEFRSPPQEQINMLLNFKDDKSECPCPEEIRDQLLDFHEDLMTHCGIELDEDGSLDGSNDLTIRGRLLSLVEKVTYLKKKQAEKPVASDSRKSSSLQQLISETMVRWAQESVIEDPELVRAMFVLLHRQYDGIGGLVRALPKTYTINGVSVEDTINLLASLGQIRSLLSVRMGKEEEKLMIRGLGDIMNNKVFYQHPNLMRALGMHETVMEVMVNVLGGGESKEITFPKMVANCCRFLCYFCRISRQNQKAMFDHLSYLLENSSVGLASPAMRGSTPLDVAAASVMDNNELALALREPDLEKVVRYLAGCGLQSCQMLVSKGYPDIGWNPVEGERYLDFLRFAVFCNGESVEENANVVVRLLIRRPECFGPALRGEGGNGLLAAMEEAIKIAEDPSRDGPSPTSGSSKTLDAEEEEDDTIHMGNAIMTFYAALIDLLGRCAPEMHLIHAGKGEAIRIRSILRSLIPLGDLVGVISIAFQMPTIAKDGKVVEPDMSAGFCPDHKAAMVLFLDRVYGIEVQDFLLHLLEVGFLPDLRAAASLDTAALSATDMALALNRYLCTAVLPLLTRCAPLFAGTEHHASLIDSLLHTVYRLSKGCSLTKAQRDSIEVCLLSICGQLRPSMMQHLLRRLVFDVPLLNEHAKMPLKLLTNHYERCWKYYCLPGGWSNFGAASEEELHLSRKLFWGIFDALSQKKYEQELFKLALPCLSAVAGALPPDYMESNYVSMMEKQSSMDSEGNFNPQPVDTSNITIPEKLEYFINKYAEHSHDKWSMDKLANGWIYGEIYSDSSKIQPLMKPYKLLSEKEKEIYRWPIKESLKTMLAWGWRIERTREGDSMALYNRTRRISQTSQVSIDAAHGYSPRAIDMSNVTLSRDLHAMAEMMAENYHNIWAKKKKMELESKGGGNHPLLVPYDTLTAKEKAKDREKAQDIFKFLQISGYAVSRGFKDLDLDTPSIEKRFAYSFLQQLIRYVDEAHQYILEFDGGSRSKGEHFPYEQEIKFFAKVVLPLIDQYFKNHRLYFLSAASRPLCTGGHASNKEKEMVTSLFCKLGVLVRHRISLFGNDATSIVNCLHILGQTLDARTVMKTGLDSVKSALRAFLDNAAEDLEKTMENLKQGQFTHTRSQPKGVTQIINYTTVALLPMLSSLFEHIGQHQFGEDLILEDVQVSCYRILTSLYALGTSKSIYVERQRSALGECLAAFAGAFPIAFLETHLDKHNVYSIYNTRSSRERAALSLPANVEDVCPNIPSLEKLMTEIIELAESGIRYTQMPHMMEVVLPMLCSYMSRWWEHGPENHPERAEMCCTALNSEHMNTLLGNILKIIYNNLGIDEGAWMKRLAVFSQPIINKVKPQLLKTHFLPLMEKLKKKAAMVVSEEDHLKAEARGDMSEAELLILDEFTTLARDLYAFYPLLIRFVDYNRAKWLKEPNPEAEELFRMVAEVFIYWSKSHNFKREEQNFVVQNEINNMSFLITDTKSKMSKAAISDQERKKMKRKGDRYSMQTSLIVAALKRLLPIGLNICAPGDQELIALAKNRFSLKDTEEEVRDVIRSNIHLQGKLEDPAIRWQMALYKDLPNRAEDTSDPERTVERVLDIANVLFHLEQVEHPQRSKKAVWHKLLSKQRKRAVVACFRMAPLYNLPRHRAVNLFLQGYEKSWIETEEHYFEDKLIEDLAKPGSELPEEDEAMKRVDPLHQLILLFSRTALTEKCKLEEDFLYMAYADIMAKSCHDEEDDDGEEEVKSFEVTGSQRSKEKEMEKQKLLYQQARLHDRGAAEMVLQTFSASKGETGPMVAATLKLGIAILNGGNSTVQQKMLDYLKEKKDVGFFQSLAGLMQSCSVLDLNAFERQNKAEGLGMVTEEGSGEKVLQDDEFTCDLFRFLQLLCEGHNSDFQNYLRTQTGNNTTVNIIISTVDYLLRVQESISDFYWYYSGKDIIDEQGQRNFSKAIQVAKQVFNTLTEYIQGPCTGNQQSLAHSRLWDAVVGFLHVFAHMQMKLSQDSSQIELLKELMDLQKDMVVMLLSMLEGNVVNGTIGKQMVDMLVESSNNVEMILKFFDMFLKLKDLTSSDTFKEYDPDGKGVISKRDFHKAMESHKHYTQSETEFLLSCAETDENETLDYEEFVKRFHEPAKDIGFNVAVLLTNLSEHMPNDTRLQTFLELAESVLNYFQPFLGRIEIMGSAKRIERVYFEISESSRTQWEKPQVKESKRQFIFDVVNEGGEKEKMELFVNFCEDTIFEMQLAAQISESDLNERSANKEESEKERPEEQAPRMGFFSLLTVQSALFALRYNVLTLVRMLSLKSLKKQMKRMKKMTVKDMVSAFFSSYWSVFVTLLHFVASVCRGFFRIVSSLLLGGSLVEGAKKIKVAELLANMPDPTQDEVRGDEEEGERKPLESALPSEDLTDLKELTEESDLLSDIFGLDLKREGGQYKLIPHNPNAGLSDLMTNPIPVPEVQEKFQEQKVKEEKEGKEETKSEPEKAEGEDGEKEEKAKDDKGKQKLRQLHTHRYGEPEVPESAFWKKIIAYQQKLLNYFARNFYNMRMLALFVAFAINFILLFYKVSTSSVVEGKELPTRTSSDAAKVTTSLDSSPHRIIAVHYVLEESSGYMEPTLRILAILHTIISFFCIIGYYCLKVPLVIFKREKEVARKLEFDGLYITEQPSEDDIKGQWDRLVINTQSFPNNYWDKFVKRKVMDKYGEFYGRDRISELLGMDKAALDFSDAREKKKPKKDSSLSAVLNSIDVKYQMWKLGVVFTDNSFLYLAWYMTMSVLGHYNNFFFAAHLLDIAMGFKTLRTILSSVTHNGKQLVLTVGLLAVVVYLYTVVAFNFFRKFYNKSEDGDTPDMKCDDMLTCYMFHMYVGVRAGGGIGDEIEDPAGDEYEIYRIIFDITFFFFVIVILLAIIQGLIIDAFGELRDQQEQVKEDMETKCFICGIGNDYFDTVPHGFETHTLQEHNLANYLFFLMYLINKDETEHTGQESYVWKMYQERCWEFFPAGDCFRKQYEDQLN

Sequence of FKBP12 (P62942 whole entry): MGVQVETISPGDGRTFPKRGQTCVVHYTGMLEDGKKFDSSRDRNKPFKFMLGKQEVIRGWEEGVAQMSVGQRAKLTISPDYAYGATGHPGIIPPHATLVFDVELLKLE

For the substance “FKBP12 (from UniProt P62942 1-108) (natural protein)”, the percent increase in the frequency of spontaneous Ca^2+ waves in permeabilised rat cardiac myocytes with 3 µM FKBP12 was found to be 50%; the percent increase in the frequency of spontaneous Ca^2+ waves in permeabilised rat cardiac myocytes with 3 µM FKBP12, after pre-incubation with and in the continued presence of 200 nM FKBP12.6 was found to be 16.2%.

Source of the values: article PMC3283708.
